The values that follow come from patent US20260070986A1.

The term pKd denotes −log10 of the Kd, conventionally taken in molar units. The EC50 (read off the curve) is the concentration giving half of the maximal effect. The low end stands for higher potency in that assay, the high end for lower potency in that assay.

For assay [1], the target named is human CD16A-mFc (158F) (sAg_107) (human) (UniProt P08637). Put plainly: ELISA, plate coated with human CD16A-mFc (158F), one-site fit, mean of 3. For orientation: An ELISA detects its analyte on a solid surface through an enzyme-linked reagent.
Assay [2] concerns the target human CD16A-mFc (158V) (sAg_149) (human) (UniProt P08637). The assay can be described thus: ELISA on coated human CD16A-mFc (158V), anti-mouse HRP detection.
Assay [3] addresses human CD16A-mFc (158F) (sAg_107) (human) (UniProt P08637). The assay can be described thus: ELISA on coated human CD16A-mFc (158F), anti-mouse HRP detection.
The target of assay [4] is CD16A endogenously expressed on primary human NK cells (human) (UniProt P08637). The assay can be described thus: flow cytometry on primary human NK cells, biotinylated antibody, 37 C, without IgG, mean of 4.
Assay [5] shares this target. The assay can be described thus: flow cytometry on primary human NK cells, 37 °C, biotinylated antibody, streptavidin-FITC, without polyclonal human IgG. (Flow cytometry measures light scatter and fluorescence of single cells or particles in a stream.)
Assay [6] has the same target. Put plainly: flow cytometry on primary human NK cells, biotinylated antibody, 37 C, with 10 mg/mL polyclonal human IgG as competitor, mean of 4.
Assay [7] deals with recombinant human FcγRIIA (CD32A), biotinylated (human) (UniProt P12318). Put plainly: SPR (Biacore T200), 37 C, biotin-captured receptor, steady-state affinity. For orientation: In SPR one partner is held on a chip, and binding of the other changes the refractive index at the surface.
The target in assay [8] is recombinant murine FcγRIIB (CD32), biotinylated (murine) (UniProt P08101). The assay is described as above.
The target in assay [9] is recombinant human FcγRIIB (CD32B), biotinylated (human) (UniProt P31994). The assay can be described thus: SPR (Biacore), 37 °C, biotin-captured human CD32B as ligand, steady-state affinity fit.
In assay [10] the target is recombinant human FcγRIIC (CD32C), biotinylated (human) (UniProt P31995). The assay can be described thus: SPR (Biacore), 37 °C, biotin-captured human CD32C as ligand, steady-state affinity fit.
In assay [11] the target is recombinant cynomolgus FcγRIIA (CD32A), biotinylated (cynomolgus). The assay can be described thus: SPR (Biacore), 37 °C, biotin-captured cynomolgus CD32A as ligand, steady-state affinity fit.
Assay [12] concerns the target recombinant cynomolgus FcγRIIB/C (CD32B/C), biotinylated (cynomolgus). The assay can be described thus: SPR (Biacore), 37 °C, biotin-captured cynomolgus CD32B/C as ligand, steady-state affinity fit.

pKd: −log10 of the molar value.

CD16A endogenously expressed on primary human NK cells (human), sequence (P08637 17-254 limits assumed): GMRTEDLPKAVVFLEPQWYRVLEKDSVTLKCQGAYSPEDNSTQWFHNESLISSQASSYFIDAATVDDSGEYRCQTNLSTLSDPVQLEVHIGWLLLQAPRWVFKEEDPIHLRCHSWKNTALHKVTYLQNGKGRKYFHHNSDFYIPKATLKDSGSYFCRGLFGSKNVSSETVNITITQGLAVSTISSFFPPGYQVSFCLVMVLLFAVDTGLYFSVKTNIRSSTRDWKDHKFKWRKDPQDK
control antibody MOR208 (anti-CD19 human IgG1 Fc enhanced), sequence (HC): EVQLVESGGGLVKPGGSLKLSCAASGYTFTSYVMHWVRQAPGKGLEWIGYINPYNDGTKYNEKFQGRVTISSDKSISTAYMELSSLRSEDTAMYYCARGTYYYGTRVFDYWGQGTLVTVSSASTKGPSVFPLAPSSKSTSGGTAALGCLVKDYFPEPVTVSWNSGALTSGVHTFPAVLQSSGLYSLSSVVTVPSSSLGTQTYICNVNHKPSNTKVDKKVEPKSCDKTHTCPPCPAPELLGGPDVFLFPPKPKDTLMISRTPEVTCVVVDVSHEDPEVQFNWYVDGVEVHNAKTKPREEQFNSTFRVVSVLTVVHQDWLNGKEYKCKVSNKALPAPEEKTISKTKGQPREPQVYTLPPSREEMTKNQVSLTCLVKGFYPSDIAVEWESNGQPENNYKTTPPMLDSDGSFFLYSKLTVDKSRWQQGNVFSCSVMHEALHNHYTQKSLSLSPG
control antibody MOR208 (anti-CD19 human IgG1 Fc enhanced), sequence (LC): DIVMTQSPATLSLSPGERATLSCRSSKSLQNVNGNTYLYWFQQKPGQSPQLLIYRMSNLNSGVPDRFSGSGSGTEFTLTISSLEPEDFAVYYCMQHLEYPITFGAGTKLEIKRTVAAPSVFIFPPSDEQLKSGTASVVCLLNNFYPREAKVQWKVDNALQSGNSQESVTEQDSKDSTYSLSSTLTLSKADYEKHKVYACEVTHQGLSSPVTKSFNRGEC
human CD16A-mFc (158F) (sAg_107) (human), sequence (P08637 17-208 limits assumed): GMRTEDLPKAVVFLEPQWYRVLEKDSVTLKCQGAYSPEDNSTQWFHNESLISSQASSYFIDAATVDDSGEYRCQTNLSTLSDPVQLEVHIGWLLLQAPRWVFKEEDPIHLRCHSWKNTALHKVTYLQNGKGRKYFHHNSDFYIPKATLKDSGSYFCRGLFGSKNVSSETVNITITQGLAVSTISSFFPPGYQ
recombinant human FcγRIIC (CD32C), biotinylated (human), sequence (P31995 43-223 limits assumed): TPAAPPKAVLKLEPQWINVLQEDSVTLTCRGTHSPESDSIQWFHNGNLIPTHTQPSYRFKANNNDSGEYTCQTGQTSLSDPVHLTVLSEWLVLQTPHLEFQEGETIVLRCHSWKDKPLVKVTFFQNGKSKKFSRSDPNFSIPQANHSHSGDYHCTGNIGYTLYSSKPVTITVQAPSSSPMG
recombinant murine FcγRIIB (CD32), biotinylated (murine), sequence (P08101 30-207 limits assumed): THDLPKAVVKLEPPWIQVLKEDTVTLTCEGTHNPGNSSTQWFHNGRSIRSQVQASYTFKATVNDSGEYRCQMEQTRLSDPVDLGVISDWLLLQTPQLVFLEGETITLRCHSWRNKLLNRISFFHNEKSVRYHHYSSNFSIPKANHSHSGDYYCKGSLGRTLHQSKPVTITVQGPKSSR
recombinant human FcγRIIB (CD32B), biotinylated (human), sequence (P31994 43-217 limits assumed): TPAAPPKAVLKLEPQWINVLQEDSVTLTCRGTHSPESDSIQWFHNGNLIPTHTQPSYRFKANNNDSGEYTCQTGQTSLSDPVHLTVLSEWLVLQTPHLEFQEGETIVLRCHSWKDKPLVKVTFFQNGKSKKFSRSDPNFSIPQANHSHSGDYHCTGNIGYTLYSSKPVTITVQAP
recombinant human FcγRIIA (CD32A), biotinylated (human), sequence (P12318 34-218 limits assumed): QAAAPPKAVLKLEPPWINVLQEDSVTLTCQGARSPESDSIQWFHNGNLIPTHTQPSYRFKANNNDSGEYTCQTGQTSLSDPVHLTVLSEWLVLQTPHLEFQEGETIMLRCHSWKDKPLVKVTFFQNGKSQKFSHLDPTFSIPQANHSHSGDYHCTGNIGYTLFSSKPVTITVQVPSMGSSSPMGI

anti-human CD16 antibody clone 3G8: the results for the pKd in assay [1], in assay [4] and in assay [6] were 10.70, 9.52 and 7.26, respectively. In addition, the half-maximal effective concentration (EC50 (read off the curve)) in assay [2] was determined as 0.3 nM; in [3], 0.03 nM; in assay [5], 0.4 nM.
For the substance “control antibody MOR208 (anti-CD19 human IgG1 Fc enhanced)”, the negative-log Kd (pKd) in assay [7] was 6.65; in assay [8], 5.76; in assay [9], 6.09; in assay [10], 6.32; in assay [11], 6.58; in [12] it was 6.45.
